What all share (assay type): binding
Assay [1] is described as follows: Probe fluorescence ratio response to arachidonic acid relative to ADIFAB2. As to conditions: arachidonic acid; response relative to ADIFAB2. The method, boiled down:
(§1)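 Fluorescently labeled rat intestinal FABP variants were read at two emission wavelengths, near the unbound maximum (about 420 to 480 nm) and the FFA-bound maximum (about 495 to 580 nm). R = Fλ1/Fλ2 after subtracting probe-free intensity; ΔR = R+agent − R0, normalized to ADIFAB2 (rI-FABP-L72A).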

Assay [2] can be described thus: Probe fluorescence ratio response to linolenic acid relative to ADIFAB2. As to conditions: response relative to ADIFAB2. The method, boiled down: as §1
Assay [3] can be described thus: Probe fluorescence ratio response to linoleic acid relative to ADIFAB2. As to conditions: response relative to ADIFAB2. The method, boiled down: as §1
Assay [4] in a line: Probe fluorescence ratio response to oleic acid relative to ADIFAB2. As to conditions: response relative to ADIFAB2. The method, boiled down: as §1
Assay [5] is described as follows: Probe fluorescence ratio response to palmitic acid relative to ADIFAB2. As to conditions: response relative to ADIFAB2. The method, boiled down:
as §1

B1: 49I, 72A (protein, listed as Rattus norvegicus)
chain: AFDGTWKVDRNENYEKFMEKMGINVVKRKLGAHDNLKLTITQEGNKFTIKESSNFRNIDVVFELGVDFAYSAADGTELTGTWTMEGNKLVGKFKRVDNGKELIAVREISGNELIQTYTYEGVEAKRIFKKE
modifications: PEPTIDE (1)...(131) wild-type rat intestinal fatty acid binding protein
For the molecule B1, in assay [1], the “DR/DR AA” value is listed as 1.796. In assay [2], the “DR/DR LNA” value turned out to be 1.820. Further, the “DR/DR LA” value in assay [3] was determined as 1.839. Moreover, the “DR/DR OA” value in assay [4] is 1.804. Also, the “DR/DR PA” value in assay [5] amounted to 1.162.

B2: 31W, 72A (protein, listed as Rattus norvegicus)
chain: AFDGTWKVDRNENYEKFMEKMGINVVKRKLWAHDNLKLTITQEGNKFTVKESSNFRNIDVVFELGVDFAYSAADGTELTGTWTMEGNKLVGKFKRVDNGKELIAVREISGNELIQTYTYEGVEAKRIFKKE
modifications: PEPTIDE (1)...(131) wild-type rat intestinal fatty acid binding protein
For B2, the “DR/DR AA” value in assay [1] came to 0.993. Further, in assay [2], the “DR/DR LNA” value is reported as 1.031. Also, the “DR/DR LA” value in assay [3] was found to be 1.147. Also, the “DR/DR OA” value in assay [4] is listed as 0.868. Further, in assay [5], the “DR/DR PA” value turned out to be 0.618.

B3: 38Y 72G 117M (protein, listed as Rattus norvegicus)
chain: AFDGTWKVDRNENYEKFMEKMGINVVKRKLGAHDNLKYTITQEGNKFTVKESSNFRNIDVVFELGVDFAYSGADGTELTGTWTMEGNKLVGKFKRVDNGKELIAVREISGNELIQTMTYEGVEAKRIFKKE
modifications: PEPTIDE (1)...(131) wild-type rat intestinal fatty acid binding protein
Regarding B3, the “DR/DR AA” value in assay [1] came to 1.541. In addition, in assay [2], the “DR/DR LNA” value is 1.228. In assay [3], the “DR/DR LA” value stood at 1.233. In addition, the “DR/DR OA” value in assay [4] is 1.137. In assay [5], the “DR/DR PA” value amounted to 0.574.

B4: 18L, 72A (protein, listed as Rattus norvegicus)
chain: AFDGTWKVDRNENYEKFLEKMGINVVKRKLGAHDNLKLTITQEGNKFTVKESSNFRNIDVVFELGVDFAYSAADGTELTGTWTMEGNKLVGKFKRVDNGKELIAVREISGNELIQTYTYEGVEAKRIFKKE
modifications: PEPTIDE (1)...(131) wild-type rat intestinal fatty acid binding protein
Consider B4, for which the “DR/DR AA” value in assay [1] amounted to 1.490. Moreover, the “DR/DR LNA” value in assay [2] was 1.544. The “DR/DR LA” value in assay [3] stood at 1.596. Further, in assay [4], the “DR/DR OA” value was 1.551. The “DR/DR PA” value in assay [5] was found to be 1.090.

B5: 23V, 72A (protein, listed as Rattus norvegicus)
chain: AFDGTWKVDRNENYEKFMEKMGVNVVKRKLGAHDNLKLTITQEGNKFTVKESSNFRNIDVVFELGVDFAYSAADGTELTGTWTMEGNKLVGKFKRVDNGKELIAVREISGNELIQTYTYEGVEAKRIFKKE
modifications: PEPTIDE (1)...(131) wild-type rat intestinal fatty acid binding protein
Turning to B5, the “DR/DR AA” value in assay [1] worked out at 1.464. Further, the “DR/DR LNA” value in assay [2] was 1.351. In addition, in assay [3], the “DR/DR LA” value was 1.731. In addition, the “DR/DR OA” value in assay [4] was found to be 1.561. Moreover, the “DR/DR PA” value in assay [5] is 1.475.

B6: 49M, 72A (protein, listed as Rattus norvegicus)
chain: AFDGTWKVDRNENYEKFMEKMGINVVKRKLGAHDNLKLTITQEGNKFTMKESSNFRNIDVVFELGVDFAYSAADGTELTGTWTMEGNKLVGKFKRVDNGKELIAVREISGNELIQTYTYEGVEAKRIFKKE
modifications: PEPTIDE (1)...(131) wild-type rat intestinal fatty acid binding protein
As to B6, the “DR/DR AA” value in assay [1] turned out to be 1.363. The “DR/DR LNA” value in assay [2] is given as 1.369. Moreover, the “DR/DR LA” value in assay [3] came out at 1.370. The “DR/DR OA” value in assay [4] stood at 1.296. Further, in assay [5], the “DR/DR PA” value worked out at 0.939.

B7: 11Q, 72A (protein, listed as Rattus norvegicus)
chain: AFDGTWKVDRQENYEKFMEKMGINVVKRKLGAHDNLKLTITQEGNKFTVKESSNFRNIDVVFELGVDFAYSAADGTELTGTWTMEGNKLVGKFKRVDNGKELIAVREISGNELIQTYTYEGVEAKRIFKKE
modifications: PEPTIDE (1)...(131) wild-type rat intestinal fatty acid binding protein
For B7, the “DR/DR AA” value in assay [1] worked out at 1.525. Also, the “DR/DR LNA” value in assay [2] was 1.582. Also, the “DR/DR LA” value in assay [3] turned out to be 1.715. Also, in assay [4], the “DR/DR OA” value is reported as 1.716. In assay [5], the “DR/DR PA” value stood at 1.450.

B8: 70Q, 72A (protein, listed as Rattus norvegicus)
chain: AFDGTWKVDRNENYEKFMEKMGINVVKRKLGAHDNLKLTITQEGNKFTVKESSNFRNIDVVFELGVDFAQSAADGTELTGTWTMEGNKLVGKFKRVDNGKELIAVREISGNELIQTYTYEGVEAKRIFKKE
modifications: PEPTIDE (1)...(131) wild-type rat intestinal fatty acid binding protein
In the case of B8, the “DR/DR AA” value in assay [1] turned out to be 1.546. In addition, the “DR/DR LNA” value in assay [2] came to 1.622. Also, in assay [3], the “DR/DR LA” value is listed as 1.819. In addition, the “DR/DR OA” value in assay [4] stood at 1.604. Besides, the “DR/DR PA” value in assay [5] came to 0.868.

B9: 73Y, 72A (protein, listed as Rattus norvegicus)
chain: AFDGTWKVDRNENYEKFMEKMGINVVKRKLGAHDNLKLTITQEGNKFTVKESSNFRNIDVVFELGVDFAYSAYDGTELTGTWTMEGNKLVGKFKRVDNGKELIAVREISGNELIQTYTYEGVEAKRIFKKE
modifications: PEPTIDE (1)...(131) wild-type rat intestinal fatty acid binding protein
Consider B9, for which the “DR/DR AA” value in assay [1] was 1.529. In addition, the “DR/DR LNA” value in assay [2] is listed as 1.603. In addition, the “DR/DR LA” value in assay [3] is 1.711. Besides, the “DR/DR OA” value in assay [4] stood at 1.537. Besides, in assay [5], the “DR/DR PA” value amounted to 0.982.

B10: 21D, 72A (protein, listed as Rattus norvegicus)
chain: AFDGTWKVDRNENYEKFMEKDGINVVKRKLGAHDNLKLTITQEGNKFTVKESSNFRNIDVVFELGVDFAYSAADGTELTGTWTMEGNKLVGKFKRVDNGKELIAVREISGNELIQTYTYEGVEAKRIFKKE
modifications: PEPTIDE (1)...(131) wild-type rat intestinal fatty acid binding protein
B10: the “DR/DR AA” value in assay [1] is on record as 1.301. In addition, the “DR/DR LNA” value in assay [2] is listed as 1.478. Further, the “DR/DR LA” value in assay [3] is given as 1.562. In assay [4], the “DR/DR OA” value is given as 1.345. Besides, the “DR/DR PA” value in assay [5] is given as 0.707.

B11: 104S, 72A (protein, listed as Rattus norvegicus)
chain: AFDGTWKVDRNENYEKFMEKMGINVVKRKLGAHDNLKLTITQEGNKFTVKESSNFRNIDVVFELGVDFAYSAADGTELTGTWTMEGNKLVGKFKRVDNGKELISVREISGNELIQTYTYEGVEAKRIFKKE
modifications: PEPTIDE (1)...(131) wild-type rat intestinal fatty acid binding protein
On to B11, for which the “DR/DR AA” value in assay [1] stood at 1.638. Also, the “DR/DR LNA” value in assay [2] is recorded as 1.538. Also, in assay [3], the “DR/DR LA” value was 1.715. Further, in assay [4], the “DR/DR OA” value was found to be 1.663. In addition, the “DR/DR PA” value in assay [5] stood at 1.570.

B12: 14L 38I 72A (protein, listed as Rattus norvegicus)
chain: AFDGTWKVDRNENLEKFMEKMGINVVKRKLGAHDNLKITITQEGNKFTVKESSNFRNIDVVFELGVDFAYSAADGTELTGTWTMEGNKLVGKFKRVDNGKELIAVREISGNELIQTYTYEGVEAKRIFKKE
modifications: PEPTIDE (1)...(131) wild-type rat intestinal fatty acid binding protein
For B12, the “DR/DR AA” value in assay [1] was determined as 1.046. Also, in assay [2], the “DR/DR LNA” value is recorded as 1.177. Also, the “DR/DR LA” value in assay [3] was determined as 1.090. Besides, in assay [4], the “DR/DR OA” value amounted to 0.653. Besides, the “DR/DR PA” value in assay [5] turned out to be 0.712.

B13: 119L, 72A (protein, listed as Rattus norvegicus)
chain: AFDGTWKVDRNENYEKFMEKMGINVVKRKLGAHDNLKLTITQEGNKFTVKESSNFRNIDVVFELGVDFAYSAADGTELTGTWTMEGNKLVGKFKRVDNGKELIAVREISGNELIQTYTLEGVEAKRIFKKE
modifications: PEPTIDE (1)...(131) wild-type rat intestinal fatty acid binding protein
As to B13, the “DR/DR AA” value in assay [1] is on record as 1.021. Further, in assay [2], the “DR/DR LNA” value is 1.053. The “DR/DR LA” value in assay [3] was found to be 1.134. Besides, in assay [4], the “DR/DR OA” value is listed as 0.778. In addition, the “DR/DR PA” value in assay [5] came to 0.661.

B14: 62Y, 72A (protein, listed as Rattus norvegicus)
chain: AFDGTWKVDRNENYEKFMEKMGINVVKRKLGAHDNLKLTITQEGNKFTVKESSNFRNIDVVYELGVDFAYSAADGTELTGTWTMEGNKLVGKFKRVDNGKELIAVREISGNELIQTYTYEGVEAKRIFKKE
modifications: PEPTIDE (1)...(131) wild-type rat intestinal fatty acid binding protein
Regarding B14, in assay [1], the “DR/DR AA” value came to 1.598. The “DR/DR LNA” value in assay [2] amounted to 1.395. Besides, the “DR/DR LA” value in assay [3] is on record as 1.545. Further, in assay [4], the “DR/DR OA” value was 1.439. In assay [5], the “DR/DR PA” value was 1.037.

B15: 31F, 72A (protein, listed as Rattus norvegicus)
chain: AFDGTWKVDRNENYEKFMEKMGINVVKRKLFAHDNLKLTITQEGNKFTVKESSNFRNIDVVFELGVDFAYSAADGTELTGTWTMEGNKLVGKFKRVDNGKELIAVREISGNELIQTYTYEGVEAKRIFKKE
modifications: PEPTIDE (1)...(131) wild-type rat intestinal fatty acid binding protein
As for B15, the “DR/DR AA” value in assay [1] was 1.210. The “DR/DR LNA” value in assay [2] is on record as 1.647. The “DR/DR LA” value in assay [3] amounted to 1.759. Besides, in assay [4], the “DR/DR OA” value is 1.331. Besides, the “DR/DR PA” value in assay [5] was 1.438.
